Measured values as given in the supplement of paper PMC10201428.
± gives the standard deviation of the averaged measurements.

The sequences below were run on VchCAST RNA-guided transposition machinery (E. coli BL21(DE3) host, lacZ target) (assay: relative integration efficiency (T-RL orientation) vs wild-type transposon end (log2 (normalized fold change)); transposon end mutated: right end (5 bp flank + 75 bp right end); higher = more efficient transposition).
Method in brief: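 Pools of 1549 left-end or 1849 right-end barcoded transposon variants were cloned into a pUC57 mini-transposon donor and co-transformed into E. coli BL21(DE3) with a T7-driven effector plasmid carrying a CRISPR array, tniQ-cas8-cas7-cas6 and tnsA-tnsB-tnsC. Plating used 0.1 mM IPTG at 37°C for 18 h, and input plasmids and genomic integration junctions were PCR-amplified for Illumina sequencing, with two biological output replicates and four reference barcodes. Relative integration efficiency is the log-transformed fold change of output over input barcode abundance, normalised to the reference barcodes.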
With “ACATTTGTTGATACAACCATAAAATGATAATTACACCCATAAATTGATAATTATCACACCCATAAATTGATATTTAAGAGGATCATAGTCAGACCAACATTGCTACGACCCGTATTCGCACCGACAC” the “relative integration efficiency (log2)” value was 0.179 ± 0.034. “ACATTTGTTGATACAACCATAAAAGGATAATTACCCCCATCAATTGATAATTATCACACCCAATTTAACTATAACGCTCTGATCATAGTCAGACCAACATTGCTACGACCCGTATTCGCACCGACAC” was tested, and the “relative integration efficiency (log2)” value was -2.86 ± 0.32. “ACATTTGTTGATACAACCATAAAATGATAATTACACCCATAAATTGATAATTATCACACCCATAAATTGATATTGCCTCTGATCATAGTCACAACCATAAAATGATAATTAGACCAAGCACCGACAC” was tested, and the “relative integration efficiency (log2)” value was -0.196 ± 0.19. “ACATTTGTTGATACAACCATAAAATGATAATTATAATTATCATTTTATGGTTGTCATAATTATCATTTTATGGTTGCTCTGATCATAGTCAGACCAACATTGCTACGACCCGTATTCGCACCGACAC” was tested, and the “relative integration efficiency (log2)” value was -2.61 ± 0.67. For “ACATTTGTTGATACAACCATAAAATGATAATTACACCCATAAATTGATAATTATCACACCGTTAAATTGATATTGCCTCTGATCATAGTCAGACCAACATTGCTACGACCCGTATTCGCACCGACAC”, the “relative integration efficiency (log2)” value was -0.625 ± 0.1. For “ACATTTGTTGATACAACCATTAAATGCTAATTCCACCCATAAATTGATAATTATCACACCCAATTTAACTATAACGCTCTGATCATAGTCAGACCAACATTGCTACGACCCGTATTCGCACCGACAC”, the “relative integration efficiency (log2)” value was -0.972 ± 0.32. In the case of “ACATTTGTTCATACAACCCTAAAATGATAATTACACCCATAAATGGATAATTATCACCCCCAATTTAACTATAACGCTCTGATCATAGTCAGACCAACATTGCTACGACCCGTATTCGCACCGACAC”, the “relative integration efficiency (log2)” value is reported as -3.89 ± 0.38. For “ACATTTGTTGATACAACCATAAGTTGATATTTTCACCCATAAATTGATATTGCTCACACCCATAAATTGATATTGCCTCTGATCATAGTCAGACCAACATTGCTACGACCCGTATTCGCACCGACAC”, the “relative integration efficiency (log2)” value was -0.468 ± 0.17. With “ACATTTGTTGATATGTTGATCAACCATAAAATGATAATTACACCCATAAATTGATAATTATCACACCCATAAATTGATATTGCCTCTGATCATAGTCAGACCAACATTGCTACGACCCGTATTCGCA” the “relative integration efficiency (log2)” value was -7.04 ± 0.42. With “ACATTTGTTGATACAACCATAAAATGATAATTACTCTGATCATAGTCACACCCATAAATTGATAATTATCAGTGGGTATTTAACTATAACGGACCAACATTGCTACGACCCGTATTCGCACCGACAC” the “relative integration efficiency (log2)” value was -3.34 ± 0.27. In the case of “ACATTTGTTGATACCACCATAAAATGATAATTCCACCCATACATTGATAATTATCACACCCAATTTAACTATAACGCTCTGATCATAGTCAGACCAACATTGCTACGACCCGTATTCGCACCGACAC”, the “relative integration efficiency (log2)” value is reported as -2.81 ± 0.42. “ACATTTGTTGATACAACCATAAAATGATAATTACACCCATAAATTGATAATTATCACACCCATAAATTGATATTGCCTCTTCATGTGAGCCCAGGCAGTCCTGGGCATCAATTTTCAGCACCGACAC” was tested, and the “relative integration efficiency (log2)” value was -0.116 ± 0.3. In the case of “ACATTTGTTGATACACCCATAAATTGATATTGCCACCCATAAATTGATATTGCTCACAACCATATATTGATATCTCCTCTGATCATAGTCAGACCAACATTGCTACGACCCGTATTCGCACCGACAC”, the “relative integration efficiency (log2)” value is reported as -1.05 ± 0.22. “ACATTTGTTGATACAACCATAAAGTGATATTTACAACCATATATTGATATCTCTCACAACCATATATTGATATCTCCTCTGATCATAGTCAGACCAACATTGCTACGACCCGTATTCGCACCGACAC” was tested, and the “relative integration efficiency (log2)” value was -0.415 ± 0.28. With “ACATTTGTTGATACAACCATAAAATGATAATTACACCCATAAATTGATAATTATCAACAAACGCCCGGTCGCGGTAAGAGGATCATAGTCAGACCAACATTGCTACGACCCGTATTCGCACCGACAC” the “relative integration efficiency (log2)” value was -0.451 ± 0.085. In the case of “ACATTTGTTGATACACCCATAAATTGATATTGCCAACCATAAGTTGATATTTTTCACAACCATAAAGTGATATTTACTCTGATCATAGTCAGACCAACATTGCTACGACCCGTATTCGCACCGACAC”, the “relative integration efficiency (log2)” value is reported as -0.583 ± 0.25. In the case of “ACATTTGTTGATACAACCATAAAATGATAATTACACCCATAAATTGATAATTATCACACCCATAAATTGATATTGCCAACCATAAAATGATAATTACTCTGATCATAGTCAGACCAAGCACCGACAC”, the “relative integration efficiency (log2)” value is reported as -1.11 ± 0.39. “ACATTTGTTGATACAACCATTTTTTGATAATTACACCCATTTTATGATAATTATCACACCCATTTTATGATATTGCCTCTGATCATAGTCAGACCAACATTGCTACGACCCGTATTCGCACCGACAC” was tested, and the “relative integration efficiency (log2)” value was -1.61 ± 0.23. For “ACATTTGTTGATACAACCATAAATTGATAATTACACCCATAAAATGATAATTATCACACCCATAAAATGATATTGCCTCTGATCATAGTCAGACCAACATTGCTACGACCCGTATTCGCACCGACAC”, the “relative integration efficiency (log2)” value was -0.12 ± 0.2. With “ACATTTGTCGATACAACCATAAAATGATAATTCACCCATAAATTGATAATTATCACACCCCAATTTAACTATAACGCTCTGATCATAGTCAGACCAACATTGCTACGACCCGTATTCGCACCGACAC” the “relative integration efficiency (log2)” value was -2.26 ± 0.28. In the case of “ACATTTGTGGATACAACCATAAAACGATAATTACACCCATAAATTCATCATTATCACACCCAATTTAACTATAACGCTCTGATCATAGTCAGACCAACATTGCTACGACCCGTATTCGCACCGACAC”, the “relative integration efficiency (log2)” value is reported as -2.23 ± 0.37. “ACATTTGTTGATACAACCATATATTGATATCTCCAACCATATATTGATATCTCTCACAACCATAAAATGATAATTACTCTGATCATAGTCAGACCAACATTGCTACGACCCGTATTCGCACCGACAC” was tested, and the “relative integration efficiency (log2)” value was -0.562 ± 0.043. For “ACATTTGTTGATACAACCATAAAATGATAATTACACCCATAAATTGATAATTATCACACCCATAAATTGATATGTAAGAGGATCATAGTCAGACCAACATTGCTACGACCCGTATTCGCACCGACAC”, the “relative integration efficiency (log2)” value was -0.111 ± 0.0046. For “ACATTTGTTGATACAACCATAAAATGATAATTAATAATTATTTATAATCAGCAACTTAACCACACCCATAAATTGATAATTATCACACCCATAAATTGATATTGCCTCTGATCATAGTCAGACCAAC”, the “relative integration efficiency (log2)” value was -4.19 ± 0.29. With “ACATTTGTTGATACAACCATAAAATGATAATTACACCGTATAATTGATAATTATCACACCCATAAATTGATATTGCCTCTGATCATAGTCAGACCAACATTGCTACGACCCGTATTCGCACCGACAC” the “relative integration efficiency (log2)” value was -1.74 ± 0.11. In the case of “ACATTTGTTGATACAACCATAAGTTGATATTTTCACCCATAAATTGATAATTATCACAACCATAAAATGATAATTACTCTGATCATAGTCAGACCAACATTGCTACGACCCGTATTCGCACCGACAC”, the “relative integration efficiency (log2)” value is reported as -0.0424 ± 0.077. In the case of “ACATTTGTTGATACAACCATAAAAGGATAATTACACCCATAAATGGATAATTATCACACCCATAAATGGATATTGCCTCTGATCATAGTCAGACCAACATTGCTACGACCCGTATTCGCACCGACAC”, the “relative integration efficiency (log2)” value is reported as -1.1 ± 0.065. For “ACATTTGTTGATACAACCATAAAAGGATCATTACCCCCATCAATTGATAATTATCCCACCCCATTTAACTATAACGCTCTGATCATAGTCAGACCAACATTGCTACGACCCGTATTCGCACCGACAC”, the “relative integration efficiency (log2)” value was -4.43 ± 0.28. “ACATTTGTCGATACAACCATAAAATGATAATTACACCCATAAATTGATAATTATCACCCCCAATTTAACTATAACGCTCTGATCATAGTCAGACCAACATTGCTACGACCCGTATTCGCACCGACAC” was tested, and the “relative integration efficiency (log2)” value was -0.936 ± 0.32. With “ACATTTGTTGATACAACCAGCCCCGTCGCCGGCACAAACGCCCGGTCGCCGGCGACACAAACGCCCGGTCGCGGTAAGAGGATCATAGTCAGACCAACATTGCTACGACCCGTATTCGCACCGACAC” the “relative integration efficiency (log2)” value was -7.56 ± 1.3. In the case of “ACATTTGTTGATACAACCATAAAATGATAATTACACCGTTAAATTGATAATTATCACACCCATAAATTGATATTGCCTCTGATCATAGTCAGACCAACATTGCTACGACCCGTATTCGCACCGACAC”, the “relative integration efficiency (log2)” value is reported as -0.609 ± 0.084. With “ACATTTGTTGATACAACCATCAAATGATAATTCCACCCATACATTGATAATTATCACACCCAATTTAACTATAACGCTCTGATCATAGTCAGACCAACATTGCTACGACCCGTATTCGCACCGACAC” the “relative integration efficiency (log2)” value was -3.05 ± 0.042.
